Test results as given in patent publication US20170241986A1, “METHODS FOR IDENTIFYING COMPOUNDS THAT ALTER THE ACTIVITY OF IRHOM POLYPEPTIDES AND USE THEREOF” (The Jackson Laboratory, priority 2014, published 2017).

T1: HA-tagged human AREG (amphiregulin) (human) (UniProt P15514)
T1 sequence (looked up): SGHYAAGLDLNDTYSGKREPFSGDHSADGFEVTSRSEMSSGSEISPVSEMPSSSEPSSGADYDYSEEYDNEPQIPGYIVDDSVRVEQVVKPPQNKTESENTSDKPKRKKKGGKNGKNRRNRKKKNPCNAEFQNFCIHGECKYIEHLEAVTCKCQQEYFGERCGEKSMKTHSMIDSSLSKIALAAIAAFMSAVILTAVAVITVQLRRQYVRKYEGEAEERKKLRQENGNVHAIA

B1: Flag-tagged HuCub (human version of cub cDNA; N-terminal-truncated human iRhom2) (enzyme, not shown: small tags and cut ends)
chain: MSSMPDDVFESPPLSASYFRGIPHSASPVSPDGVQIPLKEYGRAPVPGPRRGKRIASKVKHFAFDRKKRHYGLGVVGNWLNRSYRRSISSTVQRQLESFDSHRPYFTYWLTFVHVIITLLVICTYGIAPVGFAQHVTTQLVLRNKGVYESVKYIQQENFWVGPSSIDLIHLGAKFSPCIRKDGQIEQLVLRERDLERDSGCCVQNDHSGCIQTQRKDCSETLATFVKWQDDTGPPMDKSDLGQKRTSGAVCHQDPRTCEEPASSGAHIWPDDITKWPICTEQARSNHTGFLHMDCEIKGRPCCIGTKGSCEITTREYCEFMHGYFHEEATLCSQVHCLDKVCGLLPFLNPEVPDQFYRLWLSLFLHAGVVHCLVSVVFQMTILRDLEKLAGWHRIAIIFILSGITGNLASAIFLPYRAEVGPAGSQFGLLACLFVELFQSWPLLERPWKAFLNLSAIVLFLFICGLLPWIDNIAHIFGFLSGLLLAFAFLPYITFGTSDKYRKRALILVSLLAFAGLFAALVLWLYIYPINWPWIEHLTCFPFTSRFCEKYELDQVLH
B2: HuCub: human RHBDF2 construct mimicking the mutant Rhbdf2cub transcript; N-terminal-truncated iRhom2 (protein)
chain: B1 chain
modifications: left off: small tags and cut ends
notes: human RHBDF2 construct mimicking the mutant Rhbdf2cub transcript; N-terminal-truncated iRhom2
B3: p.I186T: HuWt clone containing the human tylosis missense mutation RHBDF2 p.I186T (protein)
chain: MASADKNGGSVSSVSSSRLQSRKPPNLSITIPPPEKETQAPGEQDSMLPEGFQNRRLKKSQPRTWAAHTTACPPSFLPKRKNPAYLKSVSLQEPRSRWQESSEKRPGFRRQASLSQSIRKGAAQWFGVSGDWEGQRQQWQRRSLHHCSMRYGRLKASCQRDLELPSQEAPSFQGTESPKPCKMPKTVDPLARGRAFRHPEEMDRPHAPHPPLTPGVLSLTSFTSVRSGYSHLPRRKRMSVAHMSLQAAAALLKGRSVLDATGQRCRVVKRSFAFPSFLEEDVVDGADTFDSSFFSKEEMSSMPDDVFESPPLSASYFRGIPHSASPVSPDGVQIPLKEYGRAPVPGPRRGKRIASKVKHFAFDRKKRHYGLGVVGNWLNRSYRRSISSTVQRQLESFDSHRPYFTYWLTFVHVIITLLVICTYGIAPVGFAQHVTTQLVLRNKGVYESVKYIQQENFWVGPSSIDLIHLGAKFSPCIRKDGQIEQLVLRERDLERDSGCCVQNDHSGCIQTQRKDCSETLATFVKWQDDTGPPMDKSDLGQKRTSGAVCHQDPRTCEEPASSGAHIWPDDITKWPICTEQARSNHTGFLHMDCEIKGRPCCIGTKGSCEITTREYCEFMHGYFHEEATLCSQVHCLDKVCGLLPFLNPEVPDQFYRLWLSLFLHAGVVHCLVSVVFQMTILRDLEKLAGWHRIAIIFILSGITGNLASAIFLPYRAEVGPAGSQFGLLACLFVELFQSWPLLERPWKAFLNLSAIVLFLFICGLLPWIDNIAHIFGFLSGLLLAFAFLPYITFGTSDKYRKRALILVSLLAFAGLFAALVLWLYIYPINWPWIEHLTCFPFTSRFCEKYELDQVLH
modifications: left off: small tags and cut ends

Tests used:
[1] = biological target: T1, HA-tagged human AREG (amphiregulin) (human); assay: cell-based or functional assay
AREG [2] = assay: Co-immunoprecipitation of iRhom2-AREG complex; format: binding, human; conditions: COS7 cell lysates, anti-Flag immunoprecipitation
Experimental: Immunoprecipitation: 293T and COS7 cell transfections were carried according to the manufacturer's instructions (Life technologies). Cells plated in 6 well plates were treated with 400 μls of Cell Lysis Buffer (Cell Signaling, Danvers, Mass.) containing complete mini protease inhibitors (Roche Applied Science, Indianapolis, Ind.), incubated on ice for 10 min and centrifuged at 14,000 g for 10 min in a cold room. Cell supernatant was incubated overnight with 20 μls of magnetic beads conjugated with Anti-DDK antibody (Origene) in a cold room on a rocking platform. Following overnight incubation, beads/slurry was washed with three times with TBS-T, and protein was collected using 2×SDS-PAGE loading buffer.

AREG [3] = assay: ELISA of AREG in conditioned medium of transfected 293T cells (in vitro cleavage assay); format: cell-based, human
Text: To test whether Rhbdf2^cub, with its short N-terminal domain, could induce secretion of AREG independently of metalloprotease activity, we performed in vitro cleavage assays in the presence or absence of marimastat (MM), a potent broad-spectrum metalloprotease inhibitor that can block both ADAM17- and ADAM10-dependent shedding of substrates. Because of the significant homology between the mouse and human RHBDF2 genes we transfected 293T cells with human AREG either alone or with the human wildtype (HuWt) or human Cub (HuCub) RHBDF2 genes (FIG. 5A), and measured AREG levels in conditioned medium. In the absence of MM, we observed no difference in AREG levels between AREG-expressing and AREG/HuCub co-expressing cells, whereas co-expression of HuWt and AREG reduced AREG levels by ˜60% (FIG. 5B).
(§1) Human AREG, HB-EGF and EGF ELISA: Transient transfections were performed in 293T cells seeded in 24-well plates. Using lipofectamine LTX with Plus reagent 16.5 fmol of HuWt or HuCub was co-transfected with 25 ng of AREG or 50 ng of HB-EGF or 200 ng of EGF. The total amount of transfected DNA was made up to equal amount per well with pCMV6-AC-HA vector. After 24 h, DMSO or 10 μM MM in 1 ml of fresh medium replaced the old medium. After 24 h, 100 μl of supernatant was either undiluted (HB-EGF and EGF) or diluted five-fold (AREG) and subjected to ELISA as per the manufacturer's instructions (DY262, DY259, and DY236).

AREG [4] = assay: Immunoblot of intracellular pro-AREG in co-transfected cells; format: cell-based, human; conditions: co-expression with AREG, DMSO or 10 μM MM
Experimental: SDS-PAGE and Immunoblotting: Cells were washed once with ice cold PBS and incubated with RIPA buffer (Cell Signaling, Danvers, Mass.) containing complete mini protease inhibitors (Roche Applied Science, Indianapolis, Ind.) on ice for 10 min. Cell lysate was centrifuged at 14,000 g for 10 min at 4° C. Supernatant was collected and stored at −80° C. until further use. Total amount of protein was quantified using a Qubit Fluorometer (Life technologies), and 10 μg of protein was loaded onto 4-12% pre-cast gels (Lonza, Allendale, N.J.) and run at 140V until the low molecular weight Precision plus protein standard (Bio-Rad) reached the bottom of the gel. Resolved proteins were electrophoretically transferred onto PVDF membranes using an iBLOT (Life technologies) before blocking in 5% BSA (Cell Signaling Technology) in TBST (20 mM Tris, 137 mM sodium chloride, and 0.1% Tween-20) for 1 h at room temperature. Membranes were then incubated overnight at 4° C. in primary antibodies (1:1000) followed by three 15 min washes in TBST and incubation in secondary antibodies (1:2000) for 1 h at room temperature. After another wash in TBST for 90 min, membranes were exposed to SuperSignal West Femto Substrate (Fisher Scientific) for 5 min for detection of horseradish peroxidase generated signal. Membranes were re-probed with actin-specific antibody. […]

EGF = assay: ELISA of EGF in conditioned medium of transfected 293T cells; format: cell-based, human; conditions: 10 μM marimastat
Experimental: as §1

HB-EGF = assay: ELISA of HB-EGF in conditioned medium of transfected 293T cells; format: cell-based, human; conditions: 10 μM marimastat
Experimental: as §1

[5] = co-expression with AREG, 10 μM marimastat

Row | AREG levels after co-transfection [1] | AREG levels in conditioned medium (ELISA) of co-transfected 293T cells in the presence of marimastat [1] | Molecule | physical complex with AREG (AREG [2]) | secretion of AREG compared with empty vector transfected controls (AREG [3]; 293T cells, 10 μM marimastat) | AREG levels versus AREG-expressing cells (AREG [3]; 293T cells, co-expression with AREG, absence of MM) | levels of AREG in conditioned medium compared with HuWt (AREG [3]; [5]) | intracellular levels of AREG compared with HuWt (AREG [4]) | secretion of EGF compared with empty vector transfected controls (EGF) | secretion of HB-EGF compared with empty vector transfected controls (HB-EGF)
1 | 2 to 3 fold | 2 fold | B1 |  |  |  |  |  |  | 
2 |  |  | B2 | forms physical complexes with AREG | selectively increased secretion of AREG | no difference | greater levels of AREG in conditioned medium | lower intracellular levels | not EGF | selectively increased secretion of AREG and HB-EGF
3 |  |  | B3 | forms physical complexes with AREG |  |  | greater levels of AREG in conditioned medium | lower intracellular levels |  | 
